From article PMC11584402 come the findings set out here.

The target in test [1] is MCL1-mCherry (human), Q07820. The test can be described thus: probe binding assay (PBA; single-molecule pull-down with TIRF counting); mCherry-labelled anti-apoptotic protein from HEK293T crude extract immobilised on the PEG surface (anti-RFP antibody); eGFP-labelled probe in crude HEK293T extract added at 0-20 nM eGFP, 10 min; fractional occupancy of surface baits fitted to [probe]/(Kd+[probe]). As to conditions: remark: other sources report otherwise.

Test [2] concerns the target MCL1-mCherry (human), Q07820. Nature of the test: probe binding assay (PBA; single-molecule pull-down with TIRF counting); mCherry-labelled anti-apoptotic protein immobilised from HEK293T crude extract on a PEG surface (biotinylated anti-RFP antibody); crude HEK293T extract with the eGFP-labelled probe diluted to a range of eGFP concentrations, 10 min; fractional occupancy of surface baits at equilibrium fitted with n fixed to 1 or with the generalized Hill …. The conditions noted are these: remark: other sources report otherwise.

Test [3] concerns the target BCL2-mCherry (human), P10415. As to conditions: natural protein; chains chain; remark: other sources report otherwise.
The target in test [4] is BCLxL-mCherry (human), Q07817. The test can be described thus: probe binding assay (PBA; single-molecule pull-down with TIRF counting); mCherry-labelled anti-apoptotic protein immobilised from HEK293T crude extract on a PEG surface (biotinylated anti-RFP antibody); crude HEK293T extract with the eGFP-labelled probe diluted to a range of eGFP concentrations, 10 min; fractional occupancy of surface baits at equilibrium fitted with n fixed to 1 or with the generalized Hill …. The conditions noted are these: remark: other sources report otherwise.
Sequence of BCLxL-mCherry (human), Q07817 (Q07817 whole entry): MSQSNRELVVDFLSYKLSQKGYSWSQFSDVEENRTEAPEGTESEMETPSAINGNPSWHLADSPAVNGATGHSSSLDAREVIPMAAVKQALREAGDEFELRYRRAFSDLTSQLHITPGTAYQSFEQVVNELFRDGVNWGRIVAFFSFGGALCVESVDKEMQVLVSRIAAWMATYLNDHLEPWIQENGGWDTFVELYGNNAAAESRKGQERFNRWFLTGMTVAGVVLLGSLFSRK

Sequence of MCL1-mCherry (human), Q07820 (Q07820 whole entry): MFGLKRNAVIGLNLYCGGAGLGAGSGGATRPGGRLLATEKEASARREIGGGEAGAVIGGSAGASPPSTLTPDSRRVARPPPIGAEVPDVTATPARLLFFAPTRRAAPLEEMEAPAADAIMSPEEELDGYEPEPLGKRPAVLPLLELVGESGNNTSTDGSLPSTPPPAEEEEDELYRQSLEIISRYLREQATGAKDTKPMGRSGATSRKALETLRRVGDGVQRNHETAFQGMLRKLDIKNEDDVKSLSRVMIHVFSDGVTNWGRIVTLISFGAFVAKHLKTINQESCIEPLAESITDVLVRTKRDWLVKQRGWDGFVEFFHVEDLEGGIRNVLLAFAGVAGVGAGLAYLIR
Sequence of BCL2-mCherry (human), P10415 (P10415 whole entry): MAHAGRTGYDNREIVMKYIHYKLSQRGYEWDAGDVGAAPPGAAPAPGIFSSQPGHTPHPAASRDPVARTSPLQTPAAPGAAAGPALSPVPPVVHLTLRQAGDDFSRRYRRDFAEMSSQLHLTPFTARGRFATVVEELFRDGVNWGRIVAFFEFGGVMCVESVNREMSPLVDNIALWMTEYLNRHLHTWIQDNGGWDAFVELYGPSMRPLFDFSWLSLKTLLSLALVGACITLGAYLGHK

B1: NOXA-eGFP, Q13794 1-54 (natural protein)
chain: MPGKKARKNAQPSPARAPAELEVECATQLRRFGDKLNFRQKLLNLISKLFCSGT
A word on the Kd: it is the concentration at which binding is half-saturated. A high value points to a looser complex. Regarding B1, the Kd in test [1] and in test [2] was 4.1 nM throughout.

B2: BAD-eGFP, Q92934 1-168 (natural protein)
chain: MFQIPEFEPSEQEDSSSAERGLGPSPAGDGPSGSGKHHRQAPGLLWDASHQQEQPTSSSHHGGAGAVEIRSRHSSYPAGTEDDEGMGEEPSPFRGRSRSAPPNLWAAQRYGRELRRMSDEFVDSFKKGLPRPKSAGTATQMRQSSSWTRVFQSWWDRNLGRGSSAPSQ
For the molecule B2, the Kd in test [3] is 5.5 nM; in test [4] it was 2.5 nM.
